The labels stand for the following.
B1: Pleckstrin homology domain-containing family M member 1 (Homo sapiens), Q9Y4G2 (parent)
chain: MLSVVENGLDPQAAIPVIKKKLVGSVKALQKQYVSLDTVVTSEDGDANTMCSALEAVFIHGLHAKHIRAEAGGKRKKSAHQKPLPQPVFWPLLKAVTHKHIISELEHLTFVNTDVGRCRAWLRLALNDGLMECYLKLLLQEQARLHEYYQPTALLRDAEEGEFLLSFLQGLTSLSFELSYKSAILNEWTLTPLALSGLCPLSELDPLSTSGAELQRKESLDSISHSSGSEDIEVHHSGHKIRRNQKLTASSLSLDTASSSQLSCSLNSDSCLLQENGSKSPDHCEEPMSCDSDLGTANAEDSDRSLQEVLLEFSKAQVNSVPTNGLSQETEIPTPQASLSLHGLNTSTYLHCEAPAEPLPAQAASGTQDGVHVQEPRPQAPSPLDLQQPVESTSGQQPSSTVSETAREVGQGNGLQKAQAHDGAGLKLVVSSPTSPKNKSWISEDDFYRPSREQPLESASDHPIASYRGTPGSRPGLHRHFSQEPRKNCSLGALDQACVPSPGRRQAQAAPSQGHKSFRVVHRRQMGLSNPFRGLMKLGTVERRGAMGIWKELFCELSPLEFRLYLSNEEHTCVENCSLLRCESVGPAHSDGRFELVFSGKKLALRASSQDEAEDWLDRVREALQKVRPQQEDEWVNVQYPDQPEEPPEAPQGCLSPSDLLSEPAALQGTQFDWSSAQVPEPDAIKESLLYLYMDRTWMPYIFSLSLEALKCFRIRNNEKMLSDSHGVETIRDILPDTSLGGPSFFKIITAKAVLKLQAGNAEEAALWRDLVRKVLASYLETAEEAVTLGGSLDENCQEVLKFATRENGFLLQYLVAIPMEKGLDSQGCFCAGCSRQIGFSFVRPKLCAFSGLYYCDICHQDDASVIPARIIHNWDLTKRPICRQALKFLTQIRAQPLINLQMVNASLYEHVERMHLIGRRREQLKLLGDYLGLCRSGALKELSKRLNHRNYLLESPHRFSVADLQQIADGVYEGFLKALIEFASQHVYHCDLCTQRGFICQICQHHDIIFPFEFDTTVRCAECKTVFHQSCQAVVKKGCPRCARRRKYQEQNIFA
B2: ADP-ribosylation factor-like protein 8B (Homo sapiens), Q9NVJ2 (parent)
chain: MLALISRLLDWFRSLFWKEEMELTLVGLQYSGKTTFVNVIASGQFSEDMIPTVGFNMRKVTKGNVTIKIWDIGGQPRFRSMWERYCRGVNAIVYMIDAADREKIEASRNELHNLLDKPQLQGIPVLVLGNKRDLPNALDEKQLIEKMNLSAIQDREICCYSISCKEKDNIDITLQWLIQHSKSRRS

Test [1] covers variants of B1. The settings on record: with arl8b_human ARL8B.
In test [2] the parent is B1. The settings on record: with rab7a_human RAB7A.
Variants of B1 are the subject of test [3]. The settings on record: with arl8b_human ARL8B. This is another data set of the same source.
The variants in test [4] derive from B1. The following applies: with mlp3b_human MAP1LC3B.
Variants of B1 are the subject of test [5]. The following applies: with mlp3b_rat Map1lc3b.
In test [6] the parent is B2. The following applies: with pkhm1_human PLEKHM1, Q9Y4G2.

On to R123A, for which the “effect of a mutation on the interaction” value is on record as “disrupting interaction strength” in test [1] and “with no effect” in test [2].

Turning to R117A;R119A, the “effect of a mutation on the interaction” value in test [1] is listed as “disrupting interaction strength”; in test [2] it was “with no effect”; in test [3], “decreasing interaction strength”.

In the case of H60A;R117A;R119A, the “effect of a mutation on the interaction” value was “disrupting interaction strength” in test [1]; “with no effect” in test [2]; “decreasing interaction strength” in test [3]; “disrupting interaction strength” in test [4]; “disrupting interaction strength” in test [5].

Take H63A: the “effect of a mutation on the interaction” value in test [1] is “disrupting interaction strength”; in test [2], “with no effect”; in test [3] it was “with no effect”.

In the case of H60A, the “effect of a mutation on the interaction” value in test [1] is reported as “disrupting interaction strength”; in test [2], “with no effect”; in test [3], “decreasing interaction strength”.

On to T34N, for which the “effect of a mutation on the interaction” value in test [6] is “disrupting interaction strength”.

Regarding MLALISRLLDWFRSLFWKEEMELTLVGLQYSGKTTFVNVIASGQFSEDMIPTVGFNMRKVTKGNVTIKIWDIGGLPRFRSMWERYCRGVNAIVYMIDAADREKIEASRNELHNLLDKPQLQGIPVLVLGNKRDLPNALDEKQLIEKMNLSAIQDREICCYSISCKEKDNIDITLQWLIQHSKSRRS, in test [6], the “effect of a mutation on the interaction” value is listed as “with no effect”.

The values above are taken from IntAct's records for PubMed 28325809.
